Each sequence was assayed on F1*sub RNA substrate (template-directed ligation) (assay: fraction ligated after 30 min (ligated reads / total reads); higher = more ligase activity; sequences stand for … in GAGACCGCAACTGAAAAGTTGT…AGTTCTGCACGTAGAAGCAAAAGGC). Conditions: 42 °C.
Outline: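 The ligase ribozyme variants were produced by PCR amplification of oligo-pool templates, T7 transcription and purification on gel. Their ligated and unligated forms were gel-separated, then reverse transcribed with barcoded primers before MiSeq sequencing. Core bases were filtered at a quality of ≥20, and fraction ligated per variant was ligated reads over total reads.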
In the case of “TATCACTGTCGAAGAACTTTGGATGGGTTGA [3d1375]”, the fraction ligated was 0.846. Sequence “TATCACTGTCGAAGACACTTGGATGGGTTGA [3d1378]” has a fraction ligated of 0.812. “TATCACTGTCGAAGACACTTTGATGGGTTGA [3d1379]” gave a fraction ligated of 0.75. “TATCACTGTCGAAGACACTTTGGAGGGTTGA [3d1381]” gave a fraction ligated of 0.104. “TATCACTGTCGAAGACACTTTGGATGGGTTA [3d1383]” was tested, and the fraction ligated was 0.75. “TATCACTGTCGAAGACACTTTGGATGGGTTG [3d1384]” was tested, and the fraction ligated was 0.829. “TATCACTGTCGAAGACACTTTGGATGGGTTGA [2d133]” gave a fraction ligated of 0.835. “TATCACTGTCGAAGACACTTTGGATGGTTGA [3d1382]” showed a fraction ligated of 0.336. “TATCACTGTCGAAGACACTTTGGTGGGTTGA [3d1380]” showed a fraction ligated of 0.369. For “TATCACTGTCGAAGACATTTGGATGGGTTGA [3d1377]”, the fraction ligated was 0.841. “TATCACTGTCGAAGACCTTTGGATGGGTTGA [3d1376]” was tested, and the fraction ligated was 0.798. For “TATCACTGTCGAAGCACTTTGGATGGGTTGA [3d1374]”, the fraction ligated was 0.826. With “TATCACTGTCGAGACACTTTGGATGGGTTGA [3d1372]” the fraction ligated was 0.826. In the case of “TATCACTGTCGTAAAACTTTGGATGGGTTGA [3d1398]”, the fraction ligated was 0.842. For “TATCACTGTCGTAAACACTTGGATGGGTTGA [3d1401]”, the fraction ligated was 0.794. “TATCACTGTCGTAAACACTTTGATGGGTTGA [3d1402]” gave a fraction ligated of 0.669. Sequence “TATCACTGTCGTAAACACTTTGGAGGGTTGA [3d1404]” has a fraction ligated of 0.0511. “TATCACTGTCGTAAACACTTTGGATGGGTTA [3d1406]” was tested, and the fraction ligated was 0.761. Sequence “TATCACTGTCGTAAACACTTTGGATGGGTTG [3d1407]” has a fraction ligated of 0.83. Sequence “TATCACTGTCGTAAACACTTTGGATGGTTGA [3d1405]” has a fraction ligated of 0.166. With “TATCACTGTCGTAAACACTTTGGTGGGTTGA [3d1403]” the fraction ligated was 0.086. Work on “TATCACTGTCGTAAACATTTGGATGGGTTGA [3d1400]” yielded a fraction ligated of 0.822. “TATCACTGTCGTAAACCTTTGGATGGGTTGA [3d1399]” was tested, and the fraction ligated was 0.806. In the case of “TATCACTGTCGTAACACTTTGGATGGGTTGA [3d1386]”, the fraction ligated was 0.826. In the case of “TATCACTGTCGTAAGAACTTGGATGGGTTGA [3d1419]”, the fraction ligated was 0.847. “TATCACTGTCGTAAGAACTTTGATGGGTTGA [3d1420]” showed a fraction ligated of 0.652. For “TATCACTGTCGTAAGAACTTTGGAGGGTTGA [3d1422]”, the fraction ligated was 0.0317. With “TATCACTGTCGTAAGAACTTTGGATGGGTTA [3d1424]” the fraction ligated was 0.851. “TATCACTGTCGTAAGAACTTTGGATGGGTTG [3d1425]” gave a fraction ligated of 0.87. With “TATCACTGTCGTAAGAACTTTGGATGGTTGA [3d1423]” the fraction ligated was 0.26. “TATCACTGTCGTAAGAACTTTGGTGGGTTGA [3d1421]” showed a fraction ligated of 0.079. “TATCACTGTCGTAAGAATTTGGATGGGTTGA [3d1418]” was tested, and the fraction ligated was 0.804. “TATCACTGTCGTAAGACACTGGATGGGTTGA [3d1440]” gave a fraction ligated of 0.824. With “TATCACTGTCGTAAGACACTTGATGGGTTGA [3d1441]” the fraction ligated was 0.77. Work on “TATCACTGTCGTAAGACACTTGGAGGGTTGA [3d1443]” yielded a fraction ligated of 0.0736. “TATCACTGTCGTAAGACACTTGGATGGGTTA [3d1445]” showed a fraction ligated of 0.775. For “TATCACTGTCGTAAGACACTTGGATGGGTTG [3d1446]”, the fraction ligated was 0.807. Work on “TATCACTGTCGTAAGACACTTGGATGGTTGA [3d1444]” yielded a fraction ligated of 0.382. Work on “TATCACTGTCGTAAGACACTTGGTGGGTTGA [3d1442]” yielded a fraction ligated of 0.692. “TATCACTGTCGTAAGACACTTTATGGGTTGA [3d1447]” was tested, and the fraction ligated was 0.0197. Sequence “TATCACTGTCGTAAGACACTTTGAGGGTTGA [3d1449]” has a fraction ligated of 0.0155. For “TATCACTGTCGTAAGACACTTTGATGGGTTA [3d1451]”, the fraction ligated was 0.351. In the case of “TATCACTGTCGTAAGACACTTTGATGGGTTG [3d1452]”, the fraction ligated was 0.754. “TATCACTGTCGTAAGACACTTTGATGGTTGA [3d1450]” gave a fraction ligated of 0.0354. In the case of “TATCACTGTCGTAAGACACTTTGGAGGGTTA [3d1458]”, the fraction ligated was 0.0132. Sequence “TATCACTGTCGTAAGACACTTTGGAGGGTTG [3d1459]” has a fraction ligated of 0.0454. “TATCACTGTCGTAAGACACTTTGGAGGTTGA [3d1457]” showed a fraction ligated of 0.0147. For “TATCACTGTCGTAAGACACTTTGGATGGGTT [3d1462]”, the fraction ligated was 0.365. Work on “TATCACTGTCGTAAGACACTTTGGATGGGTTA [2d145]” yielded a fraction ligated of 0.773. With “TATCACTGTCGTAAGACACTTTGGATGGGTTG [2d146]” the fraction ligated was 0.798. TATCACTGTCGTAAGACACTTTGGATGGGTTGA [1d7] showed a fraction ligated of 0.806. “TATCACTGTCGTAAGACACTTTGGATGGTTA [3d1460]” gave a fraction ligated of 0.272. “TATCACTGTCGTAAGACACTTTGGATGGTTG [3d1461]” showed a fraction ligated of 0.33. For “TATCACTGTCGTAAGACACTTTGGATGGTTGA [2d144]”, the fraction ligated was 0.513. With “TATCACTGTCGTAAGACACTTTGGGGGTTGA [3d1453]” the fraction ligated was 0.0319. “TATCACTGTCGTAAGACACTTTGGTGGGTTA [3d1455]” was tested, and the fraction ligated was 0.0411. In the case of “TATCACTGTCGTAAGACACTTTGGTGGGTTG [3d1456]”, the fraction ligated was 0.343. Sequence “TATCACTGTCGTAAGACACTTTGGTGGTTGA [3d1454]” has a fraction ligated of 0.0276. “TATCACTGTCGTAAGACACTTTGTGGGTTGA [3d1448]” was tested, and the fraction ligated was 0.0145. Work on “TATCACTGTCGTAAGACATTGGATGGGTTGA [3d1433]” yielded a fraction ligated of 0.818. “TATCACTGTCGTAAGACATTTGATGGGTTGA [3d1434]” showed a fraction ligated of 0.79. “TATCACTGTCGTAAGACATTTGGAGGGTTGA [3d1436]” showed a fraction ligated of 0.431. In the case of “TATCACTGTCGTAAGACATTTGGATGGGTTA [3d1438]”, the fraction ligated was 0.792. Work on “TATCACTGTCGTAAGACATTTGGATGGGTTG [3d1439]” yielded a fraction ligated of 0.82. “TATCACTGTCGTAAGACATTTGGATGGTTGA [3d1437]” was tested, and the fraction ligated was 0.606. “TATCACTGTCGTAAGACATTTGGTGGGTTGA [3d1435]” gave a fraction ligated of 0.752. “TATCACTGTCGTAAGACCTTGGATGGGTTGA [3d1426]” was tested, and the fraction ligated was 0.809. “TATCACTGTCGTAAGACCTTTGATGGGTTGA [3d1427]” gave a fraction ligated of 0.773. In the case of “TATCACTGTCGTAAGACCTTTGGAGGGTTGA [3d1429]”, the fraction ligated was 0.133. Sequence “TATCACTGTCGTAAGACCTTTGGATGGGTTA [3d1431]” has a fraction ligated of 0.808. “TATCACTGTCGTAAGACCTTTGGATGGGTTG [3d1432]” gave a fraction ligated of 0.835. In the case of “TATCACTGTCGTAAGACCTTTGGATGGTTGA [3d1430]”, the fraction ligated was 0.628. “TATCACTGTCGTAAGACCTTTGGTGGGTTGA [3d1428]” showed a fraction ligated of 0.441. Work on “TATCACTGTCGTAAGACTTTGGATGGGTTGA [3d1408]” yielded a fraction ligated of 0.856. For “TATCACTGTCGTAAGCACTTGGATGGGTTGA [3d1411]”, the fraction ligated was 0.745. Work on “TATCACTGTCGTAAGCACTTTGATGGGTTGA [3d1412]” yielded a fraction ligated of 0.686. “TATCACTGTCGTAAGCACTTTGGAGGGTTGA [3d1414]” gave a fraction ligated of 0.0753. “TATCACTGTCGTAAGCACTTTGGATGGGTTA [3d1416]” showed a fraction ligated of 0.752. “TATCACTGTCGTAAGCACTTTGGATGGGTTG [3d1417]” showed a fraction ligated of 0.816. Work on “TATCACTGTCGTAAGCACTTTGGATGGTTGA [3d1415]” yielded a fraction ligated of 0.175. “TATCACTGTCGTAAGCACTTTGGTGGGTTGA [3d1413]” was tested, and the fraction ligated was 0.11. In the case of “TATCACTGTCGTAAGCATTTGGATGGGTTGA [3d1410]”, the fraction ligated was 0.797. Work on “TATCACTGTCGTAAGCCTTTGGATGGGTTGA [3d1409]” yielded a fraction ligated of 0.815. Work on “TATCACTGTCGTAGAACTTTGGATGGGTTGA [3d1388]” yielded a fraction ligated of 0.886. Work on “TATCACTGTCGTAGACACTTGGATGGGTTGA [3d1391]” yielded a fraction ligated of 0.799. Work on “TATCACTGTCGTAGACACTTTGATGGGTTGA [3d1392]” yielded a fraction ligated of 0.787. Work on “TATCACTGTCGTAGACACTTTGGAGGGTTGA [3d1394]” yielded a fraction ligated of 0.13. Sequence “TATCACTGTCGTAGACACTTTGGATGGGTTA [3d1396]” has a fraction ligated of 0.791. “TATCACTGTCGTAGACACTTTGGATGGGTTG [3d1397]” gave a fraction ligated of 0.811. “TATCACTGTCGTAGACACTTTGGATGGGTTGA [2d134]” showed a fraction ligated of 0.861. “TATCACTGTCGTAGACACTTTGGATGGTTGA [3d1395]” gave a fraction ligated of 0.409. With “TATCACTGTCGTAGACACTTTGGTGGGTTGA [3d1393]” the fraction ligated was 0.499. With “TATCACTGTCGTAGACATTTGGATGGGTTGA [3d1390]” the fraction ligated was 0.864. With “TATCACTGTCGTAGACCTTTGGATGGGTTGA [3d1389]” the fraction ligated was 0.837. Work on “TATCACTGTCGTAGCACTTTGGATGGGTTGA [3d1387]” yielded a fraction ligated of 0.881. “TATCACTGTCGTGACACTTTGGATGGGTTGA [3d1385]” was tested, and the fraction ligated was 0.854. With “TATCACTGTCTAAACACTTTGGATGGGTTGA [3d1360]” the fraction ligated was 0.816. For “TATCACTGTCTAAGAACTTTGGATGGGTTGA [3d1362]”, the fraction ligated was 0.849. In the case of “TATCACTGTCTAAGACACTTGGATGGGTTGA [3d1365]”, the fraction ligated was 0.789. Work on “TATCACTGTCTAAGACACTTTGATGGGTTGA [3d1366]” yielded a fraction ligated of 0.77. “TATCACTGTCTAAGACACTTTGGAGGGTTGA [3d1368]” showed a fraction ligated of 0.102. For “TATCACTGTCTAAGACACTTTGGATGGGTTA [3d1370]”, the fraction ligated was 0.762. “TATCACTGTCTAAGACACTTTGGATGGGTTG [3d1371]” showed a fraction ligated of 0.8. “TATCACTGTCTAAGACACTTTGGATGGGTTGA [2d132]” gave a fraction ligated of 0.818. With “TATCACTGTCTAAGACACTTTGGATGGTTGA [3d1369]” the fraction ligated was 0.239. “TATCACTGTCTAAGACACTTTGGTGGGTTGA [3d1367]” showed a fraction ligated of 0.34. With “TATCACTGTCTAAGACATTTGGATGGGTTGA [3d1364]” the fraction ligated was 0.803. Sequence “TATCACTGTCTAAGACCTTTGGATGGGTTGA [3d1363]” has a fraction ligated of 0.795. For “TATCACTGTCTAAGCACTTTGGATGGGTTGA [3d1361]”, the fraction ligated was 0.771. For “TATCACTGTCTAGACACTTTGGATGGGTTGA [3d1359]”, the fraction ligated was 0.822. “TATCACTGTGAAGACACTTTGGATGGGTTGA [3d1344]” showed a fraction ligated of 0.863.

— the supplement of paper PMC6755084
